In patent US20240042051A1, “MCL-1 INHIBITOR ANTIBODY-DRUG CONJUGATES AND METHODS OF USE” (Novartis AG, priority 2020, published 2024):

What was measured:
[1] = biological target: hCD48EC:mouse-Ig (non-mutated human CD48-mouse IgG1 fusion protein) (human) (UniProt P09326); assay: ELISA, HEK293T culture supernatant (1:10) with the CD48-mouse Ig construct, antibody at 25, 250 and 500 ng/mL, detection goat anti-mouse IgG (H+L) HRP, Mean OD450-570
[2] = biological target: 2249 (Homo sapiens) (UniProt P09326); assay: as above
[3] = biological target: Cynomolgus Monkey CD48 (recombinant, CynoCD48 aa29-217) (cynomolgus monkey (Macaca fascicularis)); assay: SPR Biacore T200, antibody captured on protein A chip, CD48 as analyte, 25 °C, 1:1 model

Sequence of 2249 (Homo sapiens) (P09326 27-220): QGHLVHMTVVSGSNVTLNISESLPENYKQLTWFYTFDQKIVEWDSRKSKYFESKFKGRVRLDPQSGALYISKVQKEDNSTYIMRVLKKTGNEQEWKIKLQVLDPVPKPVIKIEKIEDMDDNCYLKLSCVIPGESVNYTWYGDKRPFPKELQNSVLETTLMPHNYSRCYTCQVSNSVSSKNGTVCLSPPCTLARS
Sequence of hCD48EC:mouse-Ig (non-mutated human CD48-mouse IgG1 fusion protein) (human) (P09326 27-220, change not shown): as the sequence (P09326 27-220) above

B1: humanized CD48A (antibody, V domains shown)
VH: QVQLVQSGSELKKPGASVKVSCKASGYTFTDFGMNWVRQAPGQGLEWMGWINTFTGEPSYGNVFKGRFVFSLDTSVSTAYLQISSLKAEDTAVYYCARRHGNGNVFDSWGQGTLVTVSS
VL: EIVLTQSPDFQSVTPKEKVTITCRASQSIGSNIHWYQQKPDQSPKLLIKYTSESISGVPSRFSGSGSGTDFTLTINSLEAEDAATYYCQQSNSWPLTFGGGTKVEIKR
Binder B1 has an EC50 (read off the curve) [1] of 0.02 µg/mL and an EC50 (read off the curve) [2] of 0.03 µg/mL.

B2: NY938 (antibody, human IgG1, kappa, V domains shown)
VH: QVQLVQSGAEVKKPGASVKVSCKASGYTFTEYTMHWVRQAPGQGLEWMGGINPDTGDTSYNQKFTGRATLTVDKSTSTAYMELSSLRSEDTAVYYCARAQFWTTPRFAYWGQGTLVTVSS
VL: DIQMTQSPSSLSASVGDRVTITCKASQDVGTAVAWYQQKPGKVPKLLIYWASTRHTGVPSRFSGSGSGTDFTLTISSLQPEDVATYYCQQYSTYPITFGQGTKLEIKR
B2 was tested, and the Kd [3] was 1.5 nM, the koff [3] was 0.00037 s⁻¹ and the kon [3] was 250000 M⁻¹ s⁻¹.
